The values that follow come from publication PMC8863895, “A synthetic protein as efficient multitarget regulator against complement over-activation” (Communications Biology, 2022).

Common to all, as to conditions: both partners purified
The target in one test is T1, complement C3b (UniProt P01024 749-1663; P01024 749-1663).
T1 construct: C3b beta-chain, cut product of complement C3; C3b alpha'-chain, cut product of complement C3 (alpha chain without C3a); source: bought: CompTech
The experiment in a line: ELISA; 5 µg/mL C3b or C5 immobilised on Maxisorp plates at 4 °C overnight; increasing concentrations of regulator (0.195-50 nM) in sample buffer (2% BSA in TBS, 0.05% Tween-20); detected with anti-His-tag antibodies; absorbance normalised to the highest concentration; IC50 from a 4PL nonlinear regression. (In general: An ELISA detects its analyte on a solid surface through an enzyme-linked reagent.)

A further test concerns the target T2, complement C5.
T2 construct: complement C5 beta chain; complement C5 alpha chain; source: bought: CompTech
The description is as above.

For another test, the target named is T3, C7 (human, UniProt P10643 23-843).
T3 construct: complement component C7; Supplier is stated for the ELISA; also called complement component C7; source: bought: CompTech
Kind of test: ELISA; C5b6, C6, C7, C8, C9, C3b or C5 (5 µg/mL) immobilised on Maxisorp plates; single concentration of regulator (25 nM MFHR13 or MFHR1 variants, 50 nM FHR1); detected with anti-His-tag antibodies.

The next test addresses T4, C8 (human, UniProt P07357 31-584; P07358 55-591; P07360 21-202).
T4 construct: also called complement component C8; source: bought: CompTech; copies: + +
The description is as above.

A further test addresses T5, C6 (human, UniProt P13671 22-934).
T5 construct: complement component C6; also called complement component C6; source: bought: CompTech
The test is described as above.

The next test concerns the target T6, C9 (human, UniProt P02748 22-559).
T6 construct: complement component C9; Supplier is stated for the ELISA; also called complement component C9; source: bought: CompTech
Described as above.

The next test addresses T7, C3b (human).
T7 construct: complement C3, C3b β-chain; complement C3, C3b α′-chain (C3 α-chain after release of C3a); also called complement C3b; source: bought: CompTech
Kind of test: ELISA; decay acceleration assay: 250 ng C3b immobilised on Maxisorp; C3bBb formed with 400 ng Factor B and 25 ng Factor D, 2 h 37 °C; increasing concentrations of regulator, 40 min 37 °C; Bb remaining bound to C3b detected with anti-factor B polyclonal antibody.

T6 sequence (P02748 22-559): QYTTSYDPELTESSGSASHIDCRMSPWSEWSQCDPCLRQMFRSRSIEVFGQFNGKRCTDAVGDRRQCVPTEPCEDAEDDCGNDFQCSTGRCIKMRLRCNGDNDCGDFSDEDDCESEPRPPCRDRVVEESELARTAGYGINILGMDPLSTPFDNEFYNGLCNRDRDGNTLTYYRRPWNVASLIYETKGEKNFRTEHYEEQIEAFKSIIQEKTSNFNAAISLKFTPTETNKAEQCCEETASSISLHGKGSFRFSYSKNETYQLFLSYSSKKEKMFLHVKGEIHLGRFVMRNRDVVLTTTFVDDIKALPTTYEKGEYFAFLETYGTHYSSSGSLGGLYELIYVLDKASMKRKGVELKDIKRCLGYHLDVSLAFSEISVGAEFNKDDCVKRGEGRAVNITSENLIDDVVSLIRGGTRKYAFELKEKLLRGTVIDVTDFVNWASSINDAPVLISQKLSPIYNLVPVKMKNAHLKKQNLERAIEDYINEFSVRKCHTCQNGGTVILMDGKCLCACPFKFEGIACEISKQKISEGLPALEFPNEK
T4 sequence (P07357 31-584, chain 1 of 3): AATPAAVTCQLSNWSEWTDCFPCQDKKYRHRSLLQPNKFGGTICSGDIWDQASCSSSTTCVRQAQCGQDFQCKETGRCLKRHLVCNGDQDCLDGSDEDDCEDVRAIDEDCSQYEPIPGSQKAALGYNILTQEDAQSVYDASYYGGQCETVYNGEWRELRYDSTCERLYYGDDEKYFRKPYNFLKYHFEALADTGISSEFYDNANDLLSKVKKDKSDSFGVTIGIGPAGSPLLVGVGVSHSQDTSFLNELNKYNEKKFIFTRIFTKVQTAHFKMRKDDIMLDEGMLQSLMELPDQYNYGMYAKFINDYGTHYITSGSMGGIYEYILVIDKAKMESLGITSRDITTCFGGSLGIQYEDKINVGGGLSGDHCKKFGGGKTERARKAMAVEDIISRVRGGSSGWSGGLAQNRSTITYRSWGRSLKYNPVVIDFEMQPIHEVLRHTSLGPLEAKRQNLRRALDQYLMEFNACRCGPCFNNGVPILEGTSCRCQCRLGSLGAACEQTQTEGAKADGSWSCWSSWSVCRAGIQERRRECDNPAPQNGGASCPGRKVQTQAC
T4 sequence (P07358 55-591, chain 2 of 3): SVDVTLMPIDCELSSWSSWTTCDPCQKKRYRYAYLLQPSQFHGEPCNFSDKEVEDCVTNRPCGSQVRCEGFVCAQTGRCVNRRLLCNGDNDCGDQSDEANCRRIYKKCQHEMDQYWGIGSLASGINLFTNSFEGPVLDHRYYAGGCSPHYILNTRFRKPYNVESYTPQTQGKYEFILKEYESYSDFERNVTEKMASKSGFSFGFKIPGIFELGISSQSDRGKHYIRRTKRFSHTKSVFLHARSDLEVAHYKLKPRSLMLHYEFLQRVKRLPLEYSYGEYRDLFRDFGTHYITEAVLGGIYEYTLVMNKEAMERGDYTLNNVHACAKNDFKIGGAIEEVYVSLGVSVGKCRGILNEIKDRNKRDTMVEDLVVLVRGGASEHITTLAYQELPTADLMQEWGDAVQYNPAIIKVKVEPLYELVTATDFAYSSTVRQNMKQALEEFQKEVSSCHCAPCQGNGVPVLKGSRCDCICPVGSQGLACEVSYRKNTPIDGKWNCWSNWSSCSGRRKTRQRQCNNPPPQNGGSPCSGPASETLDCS
T4 sequence (P07360 21-202, chain 3 of 3): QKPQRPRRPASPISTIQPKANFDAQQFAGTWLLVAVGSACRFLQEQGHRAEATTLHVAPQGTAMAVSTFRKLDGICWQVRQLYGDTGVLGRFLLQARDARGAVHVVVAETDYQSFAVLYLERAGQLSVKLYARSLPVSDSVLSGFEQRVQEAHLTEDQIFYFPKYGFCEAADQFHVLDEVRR
T3 sequence (P10643 23-843): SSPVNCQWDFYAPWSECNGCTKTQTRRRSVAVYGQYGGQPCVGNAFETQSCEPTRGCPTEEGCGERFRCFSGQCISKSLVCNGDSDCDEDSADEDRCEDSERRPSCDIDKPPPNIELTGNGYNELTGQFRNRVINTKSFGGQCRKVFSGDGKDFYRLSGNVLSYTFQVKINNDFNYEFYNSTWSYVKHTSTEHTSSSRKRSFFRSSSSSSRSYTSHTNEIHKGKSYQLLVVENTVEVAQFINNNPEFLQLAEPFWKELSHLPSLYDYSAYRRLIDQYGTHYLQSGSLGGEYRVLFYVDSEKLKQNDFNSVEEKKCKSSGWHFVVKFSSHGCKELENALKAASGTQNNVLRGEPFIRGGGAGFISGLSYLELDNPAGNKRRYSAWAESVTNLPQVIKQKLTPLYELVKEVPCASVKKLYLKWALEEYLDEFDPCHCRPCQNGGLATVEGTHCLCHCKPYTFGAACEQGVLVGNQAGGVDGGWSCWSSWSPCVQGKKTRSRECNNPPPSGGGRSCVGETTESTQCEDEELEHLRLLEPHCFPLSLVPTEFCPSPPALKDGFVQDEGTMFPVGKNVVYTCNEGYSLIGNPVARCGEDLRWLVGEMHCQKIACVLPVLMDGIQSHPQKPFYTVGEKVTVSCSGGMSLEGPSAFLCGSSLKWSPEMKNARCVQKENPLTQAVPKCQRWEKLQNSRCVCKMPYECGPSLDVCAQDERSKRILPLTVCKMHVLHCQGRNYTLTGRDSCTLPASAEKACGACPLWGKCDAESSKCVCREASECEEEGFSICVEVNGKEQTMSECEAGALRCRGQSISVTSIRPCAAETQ
T5 sequence (P13671 22-934): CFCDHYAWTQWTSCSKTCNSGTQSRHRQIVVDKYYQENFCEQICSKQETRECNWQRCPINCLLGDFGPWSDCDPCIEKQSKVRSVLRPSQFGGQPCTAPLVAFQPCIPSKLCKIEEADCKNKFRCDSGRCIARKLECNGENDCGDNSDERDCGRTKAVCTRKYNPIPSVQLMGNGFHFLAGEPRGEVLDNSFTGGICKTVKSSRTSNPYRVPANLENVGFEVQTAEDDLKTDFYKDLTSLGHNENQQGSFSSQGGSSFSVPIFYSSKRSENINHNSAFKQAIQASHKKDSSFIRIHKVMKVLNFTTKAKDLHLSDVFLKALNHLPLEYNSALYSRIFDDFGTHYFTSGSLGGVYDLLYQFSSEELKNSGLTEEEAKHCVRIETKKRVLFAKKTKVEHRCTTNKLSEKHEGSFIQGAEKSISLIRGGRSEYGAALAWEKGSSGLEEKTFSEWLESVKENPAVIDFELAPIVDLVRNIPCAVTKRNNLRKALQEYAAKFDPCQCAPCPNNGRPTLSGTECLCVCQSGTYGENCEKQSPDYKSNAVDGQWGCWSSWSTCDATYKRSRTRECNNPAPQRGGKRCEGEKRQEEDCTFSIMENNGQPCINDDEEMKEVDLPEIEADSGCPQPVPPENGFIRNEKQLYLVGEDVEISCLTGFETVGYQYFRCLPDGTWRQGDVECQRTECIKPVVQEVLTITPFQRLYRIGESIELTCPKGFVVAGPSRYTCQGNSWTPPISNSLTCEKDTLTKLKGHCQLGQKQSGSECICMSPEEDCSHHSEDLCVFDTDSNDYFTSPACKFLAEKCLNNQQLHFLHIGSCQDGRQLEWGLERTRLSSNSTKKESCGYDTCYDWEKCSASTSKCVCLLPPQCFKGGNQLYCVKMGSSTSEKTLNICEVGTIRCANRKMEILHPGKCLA

B1: MFHR13 (FHR1_(1-2):FH1-4:FH13:FH_(19-20)) (other)
chain: EATFCDFPKINHGILYDEEKYKPFSQVPTGEVFYYSCEYNFVSPSKSFWTRITCTEEGWSPTPKCLRLCFFPFVENGHSESSGQTHLEGDTVQIICNTGYRLQNNENNISCVERGWSTPPKCRSEDCNELPPRRNTEILTGSWSDQTYPEGTQAIYKCRPGYRSLGNIIMVCRKGEWVALNPLRKCQKRPCGHPGDTPFGTFTLTGGNVFEYGVKAVYTCNEGYQLLGEINYRECDTDGWTNDIPICEVVKCLPVTAPENGKIVSSAMEPDREYHFGQAVRFVCNSGYKIEGDEEMHCSDDGFWSKEKPKCVEISCKSPDVINGSPISQKIIYKENERFQYKCNMGYEYSERGDAVCTESGWRPLPSCVAIDKLKKCKSSNLIILEEHLKNKKEFDHNSNIRYRCRGKEGWIHTVCINGRWDPEVNCSMAQIQLCGPPPPIDNGDITSFPLSVYAPASSVEYQCQNLYQLEGNKRITCRNGQWSEPPKCLHPCVISREIMENYNIALRWTAKQKLYSRTGESVEFVCKRGYRLSSRSHTLRTTCWDGKLEYPTCAKR
For the molecule B1, the figures for the IC50 in the test with complement C3b and in the test with complement C5 were 16.1 nM and 52.5 nM, respectively.

B2: Recombinant FHR1 (human FH-related protein 1) with a C-terminal 6x His-tag (natural protein, UniProt Q03591 19-330, looked up)
chain: EATFCDFPKINHGILYDEEKYKPFSQVPTGEVFYYSCEYNFVSPSKSFWTRITCTEEGWSPTPKCLRLCFFPFVENGHSESSGQTHLEGDTVQIICNTGYRLQNNENNISCVERGWSTPPKCRSTDTSCVNPPTVQNAHILSRQMSKYPSGERVRYECRSPYEMFGDEEVMCLNGNWTEPPQCKDSTGKCGPPPPIDNGDITSFPLSVYAPASSVEYQCQNLYQLEGNKRITCRNGQWSEPPKCLHPCVISREIMENYNIALRWTAKQKLYLRTGESAEFVCKRGYRLSSRSHTLRTTCWDGKLEYPTCAKR
notes: complement factor H-related protein 1 (FHR1), human; source: bought: Abcam 152006; not shown: His6, C-terminal, kept
Take B2: the binding result in the test with C7, with C8, with C6 and with C9 was “binds” in each case.

B3: MFHR13 (FHR1_(1-2):FH1-4:FH13:FH_(19-20)) (other)
chain: EATFCDFPKINHGILYDEEKYKPFSQVPTGEVFYYSCEYNFVSPSKSFWTRITCTEEGWSPTPKCLRLCFFPFVENGHSESSGQTHLEGDTVQIICNTGYRLQNNENNISCVERGWSTPPKCRSTEDCNELPPRRNTEILTGSWSDQTYPEGTQAIYKCRPGYRSLGNIIMVCRKGEWVALNPLRKCQKRPCGHPGDTPFGTFTLTGGNVFEYGVKAVYTCNEGYQLLGEINYRECDTDGWTNDIPICEVVKCLPVTAPENGKIVSSAMEPDREYHFGQAVRFVCNSGYKIEGDEEMHCSDDGFWSKEKPKCVEISCKSPDVINGSPISQKIIYKENERFQYKCNMGYEYSERGDAVCTESGWRPLPSCVAIDKLKKCKSSNLIILEEHLKNKKEFDHNSNIRYRCRGKEGWIHTVCINGRWDPEVNCSMAQIQLCGPPPPIDNGDITSFPLSVYAPASSVEYQCQNLYQLEGNKRITCRNGQWSEPPKCLHPCVISREIMENYNIALRWTAKQKLYSRTGESVEFVCKRGYRLSSRSHTLRTTCWDGKLEYPTCAKR
modifications: N-glycan at the NIS site in FHR1 SCR2 (around 65% occupied); N-glycan at the NCS site in FH13 (fully glycosylated); glycosylation site in FH4 deamidated and not glycosylated; labelled with NT-647 RED-NHS for MST
As for B3, the IC50 with C3b was determined as 2.7 nM.

The IC50 is the concentration at which inhibition is half-maximal. A high value points to weaker potency in that assay.
